2 molecules from patent publication US20040259075A1 (US Dept. of Health and Human Services, published 2004) can be followed below.

Assay [1] addresses T1, gp120-CD4-CCR5 complex (JRFL gp120) used for the X5 selection (HIV-1 JRFL). Nature of the assay: binding to the complex used for selection; method not stated.
The target of assay [2] is T2, gp120 89.6 (HIV-1 89.6, UniProt Q73372 32-508).
T2 construct: domain: gp120
Briefly: ELISA, antigen coated, Langmuir isotherm fit (FIG. 2). For orientation: ELISA stands for enzyme-linked immunosorbent assay.

The next assay has as its target T3, sCD4-gp120 89.6 complex (HIV-1 89.6, UniProt Q73372 32-508; P01730 26-208).
T3 construct: domain: gp120;domain: two-domain soluble CD4 (D1D2)
The assay is described as above.

For a further assay, the target named is gp120 JRFL (HIV-1 JRFL, UniProt P20871 32-503). Nature of the assay: ELISA, antigen coated (FIG. 1).
Another assay has as its target T4, gp120JRFL+sCD4 complex (HIV-1 JRFL).
T4 construct: domain: gp120;domain: two-domain soluble CD4 (D1D2)
Briefly: ELISA, antigen coated (FIG. 1).

For assay [3], the target named is T5, protein G cross-linked to Sepharose beads.
T5 construct: also called protein G beads; Protein G-Sepharose beads
Nature of the assay: binding to protein G cross-linked to Sepharose beads; method not stated.

The target in assay [4] is T2, gp120 89.6. Briefly: ELISA, antigen coated, Langmuir isotherm fit (FIG. 2 legend).
In assay [5] the target is T5, protein G cross-linked to Sepharose …. Briefly: effective affinity of phage for beads; reference is the gp120-CD4-CCR5 complex.
For assay [6] the target is unchanged. Briefly: effective affinity of phage for protein G beads; method not stated.
Assay [7] deals with T1, gp120-CD4-CCR5 complex (JRFL gp120) …. Nature of the assay: effective affinity of phage for the bead-bound complex; method not stated.

B1: X5 Fab (Fab)
heavy: EVQLLEQSGAEVKKPGSSVQVSCKASGGTFSMYGFNWVRQAPGHGLEWMGGIIPIFGTSNYAQKFRGRVTFTADQATSTAYMELTNLRSDDTAVYYCARDFGPDWEDGDSYDGSGRGFFDFWGQGTLVTVSSASTKGPSVFPLAPSSKSTSGGTAALGCLVKDYFPEPVTVSWNSGALTSGVHTFPAVLQSSGLYSLSSVVTVPSSSLGTQTYICNVNHKPSNTKVDKKVEPKSCDKTS
light: AELVLTQSPGTLSLSAGERATLSCRASQSVSSGSLAWYQQKPGQAPRLLIYGASTRATGIPDRFSGSGSGTDFTLTIGRLEPEDLAVYYCQQYGTSPYTFGQGTKLEIKRTVAAPSVFIFPPSDEQLKSGTASVVCLLNNFYPREAKVQWKVDNALQSGNSQESVTEHDSRDSTYSLGSTLTLSKADYEKHKVYACEVTHQGLSSPVTKSFNRGEC
notes: also called Fab X5; antibody Fab fragment X5
With B1, the Kd – broadly, the equilibrium constant for the complex coming apart – was 1 nM in [1]; 9.4 nM with gp120 89.6 [2]; 1 nM with sCD4-gp120 89.6 complex; 10 nM in the assay with gp120 JRFL; 2 nM in the assay with gp120JRFL+sCD4 complex; 15 nM in assay [3]. The molecule further gave a Kd with gp120 89.6 [4] of 9.3 nM.

B2: Phage-displayed X5 (Fab)
heavy: B1 heavy
light: B1 light
notes: also called phage X5; not shown: phage gene III fragment of the phagemid
In the case of B2, the “fold lower effective affinity than for the gp120-CD4-CCR5 complex” value in [5] amounted to 15 fold. Moreover, the Kd in assay [6] turned out to be 1.4 nM; in assay [7] it was 0.09 nM.
